Reference: US20230074436A1 (DENALI THERAPEUTICS, published 2023)
No end group written: not given here. *: point of attachment. Biotin = O=C1N[C@H]2[C@H](CS[C@H]2CCCCC(=O)*)N1

How the values were obtained:
beta-synuclein protein = target: T1, beta-synuclein protein (human, UniProt Q16143 1-134); assay: ELISA on coated synuclein, 1 ug/mL
T1 construct: species read from 'recombinant human alpha-synuclein protein, beta-synuclein protein, and gamma-synuclein protein'
Experimental: (§1) Binding to different synuclein species was tested using a method similar to the ELISA format described above. Briefly, recombinant human alpha-synuclein protein, beta-synuclein protein, and gamma-synuclein protein was coated onto 96-well Nunc plates at 1 μg/mL. The plates were washed with PBST and blocked with 150 μL of 3% BSA in PBS. The serial dilutions of purified antibodies were applied onto the plate, and the associated antibody was detected with goat anti-rat HRP secondary antibody.

gamma-synuclein protein = target: T2, gamma-synuclein protein (human, UniProt O76070 1-127); assay: ELISA on coated synuclein, 1 ug/mL
T2 construct: species read from 'recombinant human alpha-synuclein protein, beta-synuclein protein, and gamma-synuclein protein'
Experimental: as §1

[1] = target: biotinylated human alpha-synuclein (human, UniProt P37840 1-140); assay: Ala-scan peptide ELISA, row H, run 1
Experimental: (§2) 96-well Nunc plates were coated with 50 μL per well of 1 μg/mL streptavidin (from Jackson Immuno Research Laboratory) in PBS at 4° C. overnight. The plates were washed three times with PBST, and blocked with PBS containing 3% BSA at room temperature for 1 hour. The N-terminal biotinylated peptides were dissolved in Milli Q water to a concentration of 2 mg/mL, then further diluted to a concentration of 2 μg/mL with PBS. 50 μl of the diluted peptide was applied to the streptavidin-coated plates and incubated at 4° C. overnight. 2 μg/mL of biotinylated human alpha-synuclein was used as the positive control. The plates were washed three times with PBST before use. Purified antibody was diluted by serial dilution methods, from 20 μg/mL to 1 ng/mL, and 50 μL of the antibody solution was added to the peptide-coated wells. The plates were incubated for 1 hour at room temperature, then washed three times with PBST. Secondary detection antibody (goat anti-rat HRP (obtained from Southern Biotech)) was added with 1:5,000 dilutions and incubated for 1 hour at room temperature, then washed three times with PBST. Plates were developed with 50 μL/well of TMB substrate (Thermo Fisher) and quenched with 50 μL/well of 1 N sulfuric acid. The signal was quantified on a BioTek® plate reader at A450. A parallel repeat was performed for each peptide in a separate plate.

asyn_113-127_113A [2] = target: T3, asyn_113-127_113A (human); assay: Ala-scan peptide ELISA, row H, run 1
T3 construct: substitution is already in the entry; also called pep2
T3 peptide: Biotin-AEDMPVDPDNEAYEM
Experimental: as §2

asyn_113-127_114A [3] = target: T4, asyn_113-127_114A (human); assay: Ala-scan peptide ELISA, row H, run 1
T4 construct: substitution is already in the entry; also called pep3
T4 peptide: Biotin-LADMPVDPDNEAYEM
Experimental: as §2

asyn_113-127 = target: T5, asyn_113-127 (human); assay: Ala-scan peptide ELISA, row H, run 1
T5 construct: also called pep1
T5 peptide: Biotin-LEDMPVDPDNEAYEM
Experimental: as §2

asyn_113-127_117A [4] = target: T6, asyn_113-127_117A (human); assay: Ala-scan peptide ELISA, row H, run 1
T6 construct: substitution is already in the entry; also called pep6
T6 peptide: Biotin-LEDMAVDPDNEAYEM
Experimental: as §2

asyn_113-127_118A [5] = target: T7, asyn_113-127_118A (human); assay: Ala-scan peptide ELISA, row H, run 1
T7 construct: substitution is already in the entry; also called pep7
T7 peptide: Biotin-LEDMPADPDNEAYEM
Experimental: as §2

asyn_113-127_125A [6] = target: T8, asyn_113-127_125A (human); assay: Ala-scan peptide ELISA, row H, run 1
T8 construct: substitution is already in the entry; also called pep15
T8 peptide: Biotin-LEDMPVDPDNEAAEM
Experimental: as §2

asyn_113-127_116A [7] = target: T9, asyn_113-127_116A (human); assay: Ala-scan peptide ELISA, row H, run 1
T9 construct: substitution is already in the entry; also called pep5
T9 peptide: Biotin-LEDAPVDPDNEAYEM
Experimental: as §2

asyn_113-127_120A [8] = target: T10, asyn_113-127_120A (human); assay: Ala-scan peptide ELISA, row H, run 1
T10 construct: substitution is already in the entry; also called pep9
T10 peptide: Biotin-LEDMPVDADNEAYEM
Experimental: as §2

asyn_113-127_115A [9] = target: T11, asyn_113-127_115A (human); assay: Ala-scan peptide ELISA, row H, run 1
T11 construct: substitution is already in the entry; also called pep4
T11 peptide: Biotin-LEAMPVDPDNEAYEM
Experimental: as §2

asyn_113-127_124P = target: T12, asyn_113-127_124P (human); assay: Ala-scan peptide ELISA, row H, run 1
T12 construct: substitution is already in the entry; also called pep14
T12 peptide: Biotin-LEDMPVDPDNEPYEM
Experimental: as §2

asyn_113-127_126A [10] = target: T13, asyn_113-127_126A (human); assay: Ala-scan peptide ELISA, row H, run 1
T13 construct: substitution is already in the entry; also called pep16
T13 peptide: Biotin-LEDMPVDPDNEAYAM
Experimental: as §2

asyn_113-127_119A [11] = target: T14, asyn_113-127_119A (human); assay: Ala-scan peptide ELISA, row H, run 1
T14 construct: substitution is already in the entry; also called pep8
T14 peptide: Biotin-LEDMPVAPDNEAYEM
Experimental: as §2

asyn_113-127_122A [12] = target: T15, asyn_113-127_122A (human); assay: Ala-scan peptide ELISA, row H, run 1
T15 construct: substitution is already in the entry; also called pep11
T15 peptide: Biotin-LEDMPVDPDAEAYEM
Experimental: as §2

asyn_113-127_123A = target: T16, asyn_113-127_123A (human); assay: Ala-scan peptide ELISA, row H, run 1
T16 construct: substitution is already in the entry; also called pep12
T16 peptide: Biotin-LEDMPVDPDNAAYEM
Experimental: as §2

asyn_113-127_127A = target: T17, asyn_113-127_127A (human); assay: Ala-scan peptide ELISA, row H, run 1
T17 construct: substitution is already in the entry; also called pep17
T17 peptide: Biotin-LEDMPVDPDNEAYEA
Experimental: as §2

asyn_113-127_121A [13] = target: T18, asyn_113-127_121A (human); assay: Ala-scan peptide ELISA, row H, run 1
T18 construct: substitution is already in the entry; also called pep10
T18 peptide: Biotin-LEDMPVDPANEAYEM
Experimental: as §2

asyn_113-127_124G [14] = target: T19, asyn_113-127_124G (human); assay: Ala-scan peptide ELISA, row H, run 1
T19 construct: substitution is already in the entry; also called pep13
T19 peptide: Biotin-LEDMPVDPDNEGYEM
Experimental: as §2

asyn_113-127_113A [15] = target: T3, asyn_113-127_113A; assay: Ala-scan peptide ELISA, row E, run 1
Experimental: as §2

asyn_113-127_114A [16] = target: T4, asyn_113-127_114A; assay: Ala-scan peptide ELISA, row E, run 1
Experimental: as §2

asyn_113-127_117A [17] = target: T6, asyn_113-127_117A; assay: Ala-scan peptide ELISA, row E, run 1
Experimental: as §2

asyn_113-127_118A [18] = target: T7, asyn_113-127_118A; assay: Ala-scan peptide ELISA, row E, run 1
Experimental: as §2

asyn_113-127_125A [19] = target: T8, asyn_113-127_125A; assay: Ala-scan peptide ELISA, row E, run 1
Experimental: as §2

asyn_113-127_116A [20] = target: T9, asyn_113-127_116A; assay: Ala-scan peptide ELISA, row E, run 1
Experimental: as §2

asyn_113-127_120A [21] = target: T10, asyn_113-127_120A; assay: Ala-scan peptide ELISA, row E, run 1
Experimental: as §2

asyn_113-127_115A [22] = target: T11, asyn_113-127_115A; assay: Ala-scan peptide ELISA, row E, run 1
Experimental: as §2

asyn_113-127_126A [23] = target: T13, asyn_113-127_126A; assay: Ala-scan peptide ELISA, row E, run 1
Experimental: as §2

asyn_113-127_119A [24] = target: T14, asyn_113-127_119A; assay: Ala-scan peptide ELISA, row E, run 1
Experimental: as §2

asyn_113-127_122A [25] = target: T15, asyn_113-127_122A; assay: Ala-scan peptide ELISA, row E, run 1
Experimental: as §2

asyn_113-127_121A [26] = target: T18, asyn_113-127_121A; assay: Ala-scan peptide ELISA, row E, run 1
Experimental: as §2

asyn_113-127_124G [27] = target: T19, asyn_113-127_124G; assay: Ala-scan peptide ELISA, row E, run 1
Experimental: as §2

asyn_113-127_124G [28] = target: T19, asyn_113-127_124G; assay: Ala-scan peptide ELISA, row C, run 1
Experimental: as §2

[29] = target: alpha-synuclein phosphorylated at serine 129 (human, UniProt P37840 1-140); assay: SPR (Biacore), antibody captured, p129-Syn injected
Experimental: Anti-mouse Fc antibody (obtained from GE Healthcare) was immobilized on the surface of a CM5 chip (obtained from GE Healthcare) through amine-coupling to reach about 6,000 to 8,000 response units (RU). The surface was activated by injection of a mixture of 1-ethyl-3-(3-dimethylaminopropyl)-carbodiimide (EDC) and N-hydroxysuccinimide (NETS), both obtained from GE Healthcare, for 7 minutes at room temperature. […] Both injections were done at room temperature.
Purified rat anti alpha-synuclein antibody (10 μg/mL) was injected at room temperature and captured to reach 1,000 to 2,000 RU. […] Sensorgrams were fitted using a 1:1 Langmuir model to estimate kₒₙ and koff.

B1: 20H4 (antibody, rat IgG2b, V domains shown)
VH: AVQLVESGGGLVQPKESLKISCAASGFTFSNAAMYWVRQAPGKGLELLARIRTKPNNYATYHADSVKGRFTISRDDSQSMVYLHMGNLKTEDTAMYYCTADMATGDYWGPGVMVTVSS
VL: DIQMTQSPPVLSVSVGDRVTLSCKASQNINKNLDWYQQKHGEAPKPLIYSTNNLQTGVPSRFSGSGSGTDYTLTISSLQPEDVATYYCYQYKSAWTFGGGTKLELR
notes: also called clone 20H4; rat 20H4
For B1, the binding result (beta-synuclein protein) was “no binding”, the binding result (gamma-synuclein protein) was “no binding” and the A450 [1] was 0.086 OD. For the same binder, the A450 (asyn_113-127_113A [2]) was 0.068 OD, the A450 (asyn_113-127_114A [3]) was 0.061 OD and the A450 (asyn_113-127) was 0.063 OD. It also gave an A450 (asyn_113-127_117A [4]) of 0.071 OD, an A450 (asyn_113-127_118A [5]) of 0.069 OD and an A450 (asyn_113-127_125A [6]) of 0.047 OD. The A450 (asyn_113-127_116A [7]) was 0.071 OD, the A450 (asyn_113-127_120A [8]) was 0.063 OD and the A450 (asyn_113-127_115A [9]) was 0.051 OD. The A450 (asyn_113-127_124P) was 0.049 OD, the A450 (asyn_113-127_126A [10]) was 0.07 OD and the A450 (asyn_113-127_119A [11]) was 0.048 OD. It also gave an A450 (asyn_113-127_122A [12]) of 0.049 OD, an A450 (asyn_113-127_123A) of 0.068 OD and an A450 (asyn_113-127_127A) of 0.066 OD. It also gave an A450 (asyn_113-127_121A [13]) of 0.068 OD, an A450 (asyn_113-127_124G [14]) of 0.065 OD and an A450 (asyn_113-127_113A [15]) of 0.302 OD. For the same binder, the A450 (asyn_113-127_114A [16]) was 0.273 OD, the A450 (asyn_113-127_117A [17]) was 0.304 OD and the A450 (asyn_113-127_118A [18]) was 0.324 OD. For the same binder, the A450 (asyn_113-127_125A [19]) was 0.045 OD, the A450 (asyn_113-127_116A [20]) was 0.296 OD and the A450 (asyn_113-127_120A [21]) was 0.2 OD. The A450 (asyn_113-127_115A [22]) was 0.183 OD, the A450 (asyn_113-127_126A [23]) was 0.235 OD and the A450 (asyn_113-127_119A [24]) was 0.05 OD. For the same binder, the A450 (asyn_113-127_122A [25]) was 0.051 OD, the A450 (asyn_113-127_121A [26]) was 0.249 OD and the A450 (asyn_113-127_124G [27]) was 0.214 OD. For the same binder, the A450 (asyn_113-127_124G [28]) was 0.34 OD and the Kd [29] was 6.14 nM.
